According to IntAct's records for PubMed 11742986:

B1: 26S proteasome regulatory subunit 8 homolog (Saccharomyces cerevisiae), Q01939 (parent)
chain: MTAAVTSSNIVLETHESGIKPYFEQKIQETELKIRSKTENVRRLEAQRNALNDKVRFIKDELRLLQEPGSYVGEVIKIVSDKKVLVKVQPEGKYIVDVAKDINVKDLKASQRVCLRSDSYMLHKVLENKADPLVSLMMVEKVPDSTYDMVGGLTKQIKEIKEVIELPVKHPELFESLGIAQPKGVILYGPPGTGKTLLARAVAHHTDCKFIRVSGAELVQKYIGEGSRMVRELFVMAREHAPSIIFMDEIDSIGSTRVEGSGGGDSEVQRTMLELLNQLDGFETSKNIKIIMATNRLDILDPALLRPGRIDRKIEFPPPSVAARAEILRIHSRKMNLTRGINLRKVAEKMNGCSGADVKGVCTEAGMYALRERRIHVTQEDFELAVGKVMNKNQETAISVAKLFK
partner: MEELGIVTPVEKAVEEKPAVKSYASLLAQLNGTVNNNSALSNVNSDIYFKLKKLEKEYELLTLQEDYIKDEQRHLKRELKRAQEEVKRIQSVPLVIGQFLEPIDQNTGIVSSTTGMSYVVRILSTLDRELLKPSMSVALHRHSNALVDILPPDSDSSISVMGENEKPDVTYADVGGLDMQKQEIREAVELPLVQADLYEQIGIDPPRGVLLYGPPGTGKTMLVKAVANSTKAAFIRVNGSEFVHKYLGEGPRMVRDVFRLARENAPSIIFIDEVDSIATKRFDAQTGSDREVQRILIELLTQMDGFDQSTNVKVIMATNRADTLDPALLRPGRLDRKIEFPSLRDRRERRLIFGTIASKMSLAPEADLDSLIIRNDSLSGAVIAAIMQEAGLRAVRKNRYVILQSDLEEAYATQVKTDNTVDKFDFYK

Variants of: B1
Settings: with prs6b_yeast RPT3, P33298

Which “effect of a mutation on the interaction” value does the source give for MTAAVTSSNIVLETHESGIKPYFEQKIQETELKIRSKTENVRRLEAQRNALNDKVRFIKDELRLLQEPGSYVGEVIKIVSDKKVLVKVQPEGKYIVDVAKDINVKDLKASQRVCLRSDSYMLHKVLENKADPLVSLMMVEKVPDSTYDMVGGLTKQIKEIKEVIELPVKHPELFESLGIAQPKGVILYGPPGTGRTLLARAVAHHTDCKFIRVSGAELVQKYIGEGSRMVRELFVMAREHAPSIIFMDEIDSIGSTRVEGSGGGDSEVQRTMLELLNQLDGFETSKNIKIIMATNRLDILDPALLRPGRIDRKIEFPPPSVAARAEILRIHSRKMNLTRGINLRKVAEKMNGCSGADVKGVCTEAGMYALRERRIHVTQEDFELAVGKVMNKNQETAISVAKLFK [K195R] here?
Its value is “decreasing interaction”.

With MTAAVTSSNIVLETHESGIKPYFEQKIQETELKIRSKTENVRRLEAQRNALNDKVRFIKDELRLLQEPGSYVGEVIKIVSDKKVLVKVQPEGKYIVDVAKDINVKDLKASQRVCLRSDSYMLHKVLENKADPLVSLMMVEKVPDSTYDMVGGLTKQIKEIKEVIELPVKHPELFESLGIAQPKGVILYGPPGTGSTLLARAVAHHTDCKFIRVSGAELVQKYIGEGSRMVRELFVMAREHAPSIIFMDEIDSIGSTRVEGSGGGDSEVQRTMLELLNQLDGFETSKNIKIIMATNRLDILDPALLRPGRIDRKIEFPPPSVAARAEILRIHSRKMNLTRGINLRKVAEKMNGCSGADVKGVCTEAGMYALRERRIHVTQEDFELAVGKVMNKNQETAISVAKLFK [K195S] as the variant, how does the “effect of a mutation on the interaction” value read?
Its value is “decreasing interaction”.
